Source: US20200207869A1 (INSERM INSTITUT NATIONAL DE LA SANTE ET DE LA RECHERCHE …, published 2020)

What was measured:
[1] = biological target: T1, mD1-D2-HPC4 fragment (murine, UniProt Q8CIZ8 23-762); assay: ELISA, sdAb immobilized
T1 construct: range 23-762
Protocol: (§1) Wells were then washed three times with 75 μl/well using TBS-T. Residual peroxidase activity was detected by measuring peroxidase-mediated hydrolysis of 3,3′,5,5′-tetramethylbenzidine.
(§2) Negative binding (−) was defined as optical density (OD) being ≤0.5, moderate positive binding (+) was defined as OD being >0.5 and <1.0, strongly positive binding (++) was defined as OD being ≥1.0.

[2] = biological target: T2, purified recombinant murine VWF (murine, UniProt Q8CIZ8 764-2813); assay: ELISA, sdAb immobilized
T2 construct: also called rmVWF
Protocol: as §1, §2

Row | OD [1] [od] | OD [2] [od] | Binder
1 | ≤ 0.5 | ≤ 0.5 | sdAb KB-VWF-011 (VHH, Single-domain antibody against the VWF D'D3 domain; no tag stated) VHH: QVQLVQSGGGLVQAGDSLRLSCAASGGTFSNYAMGWFRQTPGKEREFVARISRSGHRTDYADSAKGRFTISRDNAKNTVYLQMNSLKPEDTAVYYCAARSDWSIATTATSYDYWGQGTQVTVSS
2 | ≤ 0.5 |  | sdAb KB-VWF-013 (VHH, Single-domain antibody against the VWF D'D3 domain; no tag stated) VHH: QVQLVQSGGGLVQAGDSLRLSCAASGRTFIRYAMAWFRQAPGKEREFVAAIPQSGGRSYYADSVKGRFTISRDNAKNTVYLQMNSLKPEDTAVYSCAATSTYYGRSAYSSHSGGYDYWGQGTQVTVSS
